# Laboratory results from PMC6719061.
# Tests used:
# [1] = molecular target: Lst-ABD, recombinant fusion protein with lysostaphin at the N-terminus and the albumin-binding domain from streptococcal protein G at the C-terminus (not stated | Streptococcus sp.)
# [2] = molecular target: Lst-ABD, recombinant fusion protein with lysostaphin at the N-terminus and the albumin-binding domain from streptococcal protein G at the C-terminus (not stated | Streptococcus sp.); assay: photonic crystal-based biosensor (EVA 2.0); Lst-ABD immobilised covalently by amine coupling (EDC/NHS) on a carboxylate-derivatized photonic crystal chip; albumin in PBST (PBS + 0.02% Tween-20, pH 7.4) pumped through the flow cell, ~5 min association, ~5 min dissociation; RSA 250, 42, 7 and 1.2 µg/mL, BSA 1 mg/mL; heterogeneous binding model with two independent sites, koff1 = koff2 fixed
substance,measurement,setting,value
rat serum albumin (from UniProt P02770 25-608) (natural protein),"rate of clearing of S. aureus ATCC 29213 cell suspension (turbidimetry, OD 550 nm) by Lst-ABD in the presence of 100 µg/mL RSA, relative to lysostaphin",[1],25%
same,KD1 (high-affinity site),[2],2.3 nM
same,KD2 (low-affinity site),[2],20 nM
same,koff,[2],5.9e-05 s⁻¹
same,kon1 (high-affinity site),[2],26000 M⁻¹ s⁻¹
same,kon2 (low-affinity site),[2],3000 M⁻¹ s⁻¹
